What all share (experiment): cell-based or functional assay
The target in assay [1] is HIV-1 92RW020 envelope protein (Env) on pseudovirus (HIV-1).
Assay [2] deals with HIV-1 98IN022 envelope glycoprotein (Env) on pseudovirus (HIV-1).
Assay [3] deals with HIV-1 Env of isolate 92UG046 (clade D) (HIV-1).
The target of assay [4] is HIV-1 Env of isolate MGRM-AE-003 (HIV-1).
The target in assay [5] is HIV-1 Env of isolate MGRM-D-024 (clade D) (HIV-1).
Assay [6] has as its target HIV-1 Env of isolate MGRM-D-028 (clade D) (HIV-1).
In assay [7] the target is HIV-1 Env of isolate MGRM-G-024 (clade G pseudovirus) (HIV-1).
In assay [8] the target is HIV-1 Env of pseudovirus NL43, clade B (HIV-1).
Assay [9] concerns the target HIV-1 LAVIC_18 Env (HIV-1).
For assay [10], the target named is HIV-1 LAVI_C22 Env (HIV-1).
The target in assay [11] is HIV-1 MGRM-C-001 Env (HIV-1).
In assay [12] the target is HIV-1 MGRM-C-013 Env (HIV-1).
In assay [13] the target is HIV-1 MGRM-C-020 Env (HIV-1).

The record followed here is patent publication US20200024330A1.

1443_C16 (PG16) (TCN-116) (antibody), sequence (VH): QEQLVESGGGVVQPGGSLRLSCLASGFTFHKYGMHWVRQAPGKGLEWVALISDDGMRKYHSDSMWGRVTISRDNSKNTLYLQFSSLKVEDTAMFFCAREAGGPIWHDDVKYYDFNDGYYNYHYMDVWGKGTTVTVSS
1443_C16 (PG16) (TCN-116) (antibody), sequence (VL): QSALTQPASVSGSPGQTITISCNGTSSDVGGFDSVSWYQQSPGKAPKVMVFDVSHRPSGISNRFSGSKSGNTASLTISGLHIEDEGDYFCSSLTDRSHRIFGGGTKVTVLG

What is called IC50 is the midpoint of a concentration-inhibition curve. Consider 2G12 (antibody), for which the neutralization IC50 in assay [1] amounted to 0.56 µg/mL. For the same substance, the IC50 (µg/ml), pseudovirus neutralization in assay [2], in [3], in assay [4], in assay [5], in [6] and in assay [7] was > 50 µg/mL each time. Also, the IC50 (µg/ml), pseudovirus neutralization in assay [8] amounted to 0.49 µg/mL. Moreover, the IC50 in [9] was > 50 µg/mL; in assay [10], > 50 µg/mL; in [11], 2.93 µg/mL; in assay [12], > 50 µg/mL; in assay [13] it was 18.6 µg/mL.

4E10 (antibody): in [1], the neutralization IC50 was 3.38 µg/mL. For the same substance, the IC50 (µg/ml), pseudovirus neutralization in assay [2] was 0.53 µg/mL; in assay [3], 12.2 µg/mL; in assay [4], 0.34 µg/mL; in [5] it was 3.6 µg/mL; in assay [6], 1.28 µg/mL; in [7], 1.57 µg/mL. The substance further gave an IC50 (µg/ml), pseudovirus neutralization in assay [8] of 4.67 µg/mL. Besides, the IC50 in assay [9] was > 50 µg/mL; in assay [10] it was 2.02 µg/mL; in assay [11], 5.66 µg/mL; in [12] it was 2.1 µg/mL; in [13] it was 2.8 µg/mL.

In assay [1], 1443_C16 (PG16) (TCN-116) (antibody) gave a neutralization IC50 of 0.004 µg/mL. The IC50 (µg/ml), pseudovirus neutralization in assay [2] is 0.003 µg/mL; in assay [3], 1.42 µg/mL; in assay [4] it was 0.03 µg/mL; in [5], 0.02 µg/mL; in assay [6] it was > 50 µg/mL; in assay [7] it was 0.01 µg/mL. In [8], this substance came in with an IC50 (µg/ml), pseudovirus neutralization of 0.02 µg/mL. In addition, the IC50 in assay [9] was 0.02 µg/mL; in [10], 0.02 µg/mL; in assay [11], 16.8 µg/mL; in [12], > 50 µg/mL; in assay [13] it was > 50 µg/mL.

For the substance 1495_C14 (PGC14) (antibody), the neutralization IC50 in assay [1] came to 28.6 µg/mL. For the same substance, the IC50 (µg/ml), pseudovirus neutralization in assay [2] is 9 µg/mL; in assay [3], > 50 µg/mL; in assay [4], > 50 µg/mL; in assay [5] it was > 50 µg/mL; in [6], > 50 µg/mL; in assay [7] it was > 50 µg/mL. Also, the IC50 (µg/ml), pseudovirus neutralization in assay [8] worked out at 40 µg/mL. Also, the IC50 in [9] is > 50 µg/mL; in assay [10] it was 25 µg/mL; in assay [11] it was > 50 µg/mL; in assay [12], > 50 µg/mL; in assay [13], > 50 µg/mL.

Regarding b12 (antibody), the neutralization IC50 in assay [1] is > 50 µg/mL. Besides, the IC50 (µg/ml), pseudovirus neutralization was 0.42 µg/mL in assay [2]; 0.07 µg/mL in assay [3]; > 50 µg/mL in assay [4]; 5.92 µg/mL in assay [5]; 0.78 µg/mL in assay [6]; 2.38 µg/mL in assay [7]. For the same substance, the IC50 (µg/ml), pseudovirus neutralization in assay [8] amounted to 0.17 µg/mL. Further, the IC50 in assay [9] was > 50 µg/mL; in [10], 7.64 µg/mL; in [11], > 50 µg/mL; in [12], > 50 µg/mL; in assay [13], > 50 µg/mL.
